The target of assay [1] is T1, protein tyrosine phosphatase-1B (PTP1B) (human, UniProt P18031 1-435).
T1 construct: Endogenous PTP1B of the cell lines, detected by co-immunoprecipitation, Western blot and mass spectrometry; also called PTPB1
T1 sequence (looked up): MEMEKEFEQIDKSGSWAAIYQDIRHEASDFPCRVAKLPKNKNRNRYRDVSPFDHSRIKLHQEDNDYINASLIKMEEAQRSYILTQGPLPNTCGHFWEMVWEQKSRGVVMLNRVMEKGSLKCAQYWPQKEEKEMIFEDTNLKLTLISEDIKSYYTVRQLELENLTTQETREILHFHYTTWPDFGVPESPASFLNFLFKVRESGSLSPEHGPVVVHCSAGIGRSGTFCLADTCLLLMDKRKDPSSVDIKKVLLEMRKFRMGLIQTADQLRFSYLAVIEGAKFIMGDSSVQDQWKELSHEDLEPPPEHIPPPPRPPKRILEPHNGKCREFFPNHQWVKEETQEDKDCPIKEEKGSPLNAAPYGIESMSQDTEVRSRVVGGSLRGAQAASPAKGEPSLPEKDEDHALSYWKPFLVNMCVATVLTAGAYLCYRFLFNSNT
Briefly: IL13Rα2 immunoprecipitation with mass spectrometry (U251 lysates) and reciprocal co-IP/Western blot in CRC, GBM and OC cell lines. The source says:
(§1) FIG. 1. […] Protein position was tentatively assigned based on existing literature.
To characterize the protein interaction network of IL13Rα2, whole-cell lysates of the human GBM cell line U251 were immunoprecipitated and analyzed by mass spectrometry.

Assay [2] has as its target T1, protein tyrosine phosphatase-1B (PTP1B). Put plainly: co-immunoprecipitation (IL13Rα2 IP, PTP1B Western blot) in RKO transfectants.
Description: as §1

The results in this text go back to patent publication US20220233552A1 (CONSEJO SUPERIOR DE INVESTIGACIONES CIENT FICAS CSIC, published 2022).

B1: IL13Rα2 (wild type) (receptor, human, UniProt Q14627 27-380, looked up)
chain: DTEIKVNPPQDFEIVDPGYLGYLYLQWQPPLSLDHFKECTVEYELKYRNIGSETWKTIITKNLHYKDGFDLNKGIEAKIHTLLPWQCTNGSEVQSSWAETTYWISPQGIPETKVQDMDCVYYNWQYLLCSWKPGIGVLLDTNYNLFYWYEGLDHALQCVDYIKADGQNIGCRFPYLEASDYKDFYICVNGSSENKPIRSSYFTFQLQNIVKPLPPVYLTFTRESSCEIKLKWSIPLGPIPARCFDYEIEIREDDTTLVTATVENETYTLKTTNETRQLCFVVRSKVNIYCSDDGIWSEWSDKQCWEGEDLSKKTLLRFWLPFGFILILVIFVTGLLLRKPNTYPKMIPEFFCDT
notes: whole, on cells; Used as endogenous protein in lysates of human CRC, GBM and OC cell lines and as transfected wild type in RKO cells; also called IL13Rα2 WT; wild-type IL13Rα2
Consider B1, for which the binding result in assay [1] is on record as “binds”.

B2: IL13Rα2 Tyr369Phe mutant (receptor, human, UniProt Q14627 27-380, looked up)
chain: DTEIKVNPPQDFEIVDPGYLGYLYLQWQPPLSLDHFKECTVEYELKYRNIGSETWKTIITKNLHYKDGFDLNKGIEAKIHTLLPWQCTNGSEVQSSWAETTYWISPQGIPETKVQDMDCVYYNWQYLLCSWKPGIGVLLDTNYNLFYWYEGLDHALQCVDYIKADGQNIGCRFPYLEASDYKDFYICVNGSSENKPIRSSYFTFQLQNIVKPLPPVYLTFTRESSCEIKLKWSIPLGPIPARCFDYEIEIREDDTTLVTATVENETYTLKTTNETRQLCFVVRSKVNIYCSDDGIWSEWSDKQCWEGEDLSKKTLLRFWLPFGFILILVIFVTGLLLRKPNTFPKMIPEFFCDT
notes: whole, on cells; immunoprecipitated from lysates; also called Y369F mutated form; mutant Tyr369Phe
As to B2, the binding result in assay [2] is listed as “no binding”.
